# Measured values: patent publication US20220213225A1 (INVENRA, published 2022)
# B1: bivalent bispecific B-Body “BC1” (PD1 x Antigen A) (bispecific antibody)
# chain 1: not shown
# chain 2: EVQLVESGGGLVQPGGSLRLSCAASGFTFSDYDIHWVRQAPGKGLEWVGDITPYDGTTNYADSVKGRFTISADTSKNTAYLQMNSLRAEDTAVYYCARLVGEIATGFDYWGQGTLVTVSSASPREPQVYTDPPSRDELTKNQVSLTCLVKGFYPSDIAVEWESNGQPENNYKTTPPVLDSDGSFFLYSKLTVDKSRWQQGNVFSCSVMHEALHNHYTQKSLSLSGEC
# chain 3: not shown
# chain 4: QVQLVESGGGVVQPGRSLRLDCKASGITFSNSGMHWVRQAPGKGLEWVAVIWYDGSKRYYADSVKGRFTISRDNSKNTLFLQMNSLRAEDTAVYYCATNDDYWGQGTLVTVSSASTKGPSVFPLAPSSKSTSGGTAALGCLVKDYFPEPVTVSWNSGALTSGVHTFPAVLQSSGLYSLSSVVTVPSSSLGTQTYICNVNHKPSNTKVDKKVEPPKSC
# notes: Chains 1+2 form the Antigen A site, chains 3+4 the PD1 site (nivolumab variable domains)
# B2: BC1 1×1 B-Body SNIPER 19×8 binding molecule (CTLA4-19 x CD25-8) (bispecific antibody)
# chain 1: not shown
# chain 2: EVQLVESGGGLVQPGGSLRLSCAASGFTFSGYWIHWVRQAPGKGLEWVAAITSRDSYTYYADSVKGRFTISADTSKNTAYLQMNSLRAEDTAVYYCARGSYLGSAFDYWGQGTLVTVSSASPREPQVYTDPPSRDELTKNQVSLTCLVKGFYPSDIAVEWESNGQPENNYKTTPPVLDSDGSFFLYSKLTVDKSRWQQGNVFSCSVMHEALHNHYTQKSLSLSGEC
# chain 3: SDIQMTQSPSSLSASVGDRVTITCRASQSVSSAVAWYQQKPGKAPKLLIYSASSLYSGVPSRFSGSRSGTDFTLTISSLQPEDFATYYCQQYSSQPATFGQGTKVEIKRTVAAPSVFIFPPSDEQLKSGTASVVCLLNNFYPREAKVQWKVDNALQSGNSQESVTEQDSKDSTYSLSSTLTLSKADYEKHKVYACEVTHQGLSSPVTKSFNRGECDKTHTCPPCPAPELLGGPSVFLFPPKPKDTLMISRTPEVTCVVVDVSHEDPEVKFNWYVDGVEVHNAKTKPREEQYNSTYRVVSVLTVLHQDWLNGKEYKCKVSNKALPAPIEKTISKAKGQPREPQVCTLPPSREEMTKNQVSLSCAVKGFYPSDIAVEWESNGQPENNYKTTPPVLDSDGSFFLVSKLTVDKSRWQQGNVFSCSVMHEALHNHYTQKSLSLSPGK
# chain 4: EVQLVESGGGLVQPGGSLRLSCAASGFTFSSYYIHWVRQAPGKGLEWVAKIQPKGGYTYYADSVKGRFTISADTSKNTAYLQMNSLRAEDTAVYYCARSYYYRPHAFDYWGQGTLVTVSSASTKGPSVFPLAPSSKSTSGGTAALGCLVKDYFPEPVTVSWNSGALTSGVHTFPAVLQSSGLYSLSSVVTVPSSSLGTQTYICNVNHKPSNTKVDKKVEPPKSC
# Experiments:
# [1] = target: T1, CTLA4 (antigen immobilised on the biosensor) (human, UniProt P16410 36-161, biotinylated in Examples 30 and 35); assay: Octet biolayer interferometry; antigen immobilised, B-Body as analyte
# T1 construct: also called hCTLA4; biotinylated human CTLA4
# [2] = target: T1, CTLA4 (antigen immobilised on the …); assay: BLI steady state analysis, biotinylated CTLA4 on streptavidin sensor, two-fold dilutions of the binding molecule from 2 µM to 31.25 nM; monovalent
# T1 sequence (P16410 36-161 limits assumed): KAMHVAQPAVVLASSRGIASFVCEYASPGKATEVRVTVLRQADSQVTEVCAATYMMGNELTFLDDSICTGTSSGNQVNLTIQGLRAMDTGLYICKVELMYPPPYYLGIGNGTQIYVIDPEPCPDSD
Binder,binding result [1],Kd [2] [nM]
B1,no binding (tested: not given on the sheet),–
B2,–,19
